Columns and labels:
Assay in all cases: cell-based or functional assay
[1] = molecular target: HIV-1 Env of isolate CAP45 (HIV-1)
[2] = molecular target: HIV-1 Env of isolate THRO.18 (HIV-1)
[3] = molecular target: HIV-1 92UG005 Env (clade D pseudovirus) (HIV-1)
[4] = molecular target: HIV-1 93UG077 Env (clade A pseudovirus) (HIV-1)
[5] = molecular target: HIV-1 APV13 Env (clade B pseudovirus) (HIV-1)
[6] = molecular target: HIV-1 CMU02 Env (clade AE pseudovirus) (HIV-1)
[7] = molecular target: HIV-1 JRCSF Env (clade B pseudovirus) (HIV-1) (UniProt P20871)
[8] = molecular target: HIV-1 MGRM-D-001 Env (clade D pseudovirus) (HIV-1)
[9] = molecular target: HIV-1 MGRM-D-018 Env (clade D pseudovirus) (HIV-1)
[10] = molecular target: HIV-1 MGRM-AG-005 Env (pseudovirus) (HIV-1)
[11] = molecular target: HIV-1 Env of isolate 93IN905 (clade C) (HIV-1)
[12] = molecular target: HIV-1 Env of isolate APV17 (clade B) (HIV-1)
[13] = molecular target: HIV-1 Env of isolate MGRM-AG-005 (clade AG) (HIV-1)
[14] = molecular target: HIV-1 Env of isolate MGRM-F1-021 (clade F), on pseudovirus (HIV-1)
[15] = molecular target: HIV-1 Env of isolate SF162 (subtype B) (HIV-1) (UniProt P19550)
[16] = molecular target: HIV-1 Env of isolate 92RW008 (clade A), on pseudovirus (HIV-1)
[17] = molecular target: HIV-1 Env of isolate 92UG037 (pseudovirus) (HIV-1)
[18] = molecular target: HIV-1 Env of isolate 92UG114 (subtype D), on pseudovirus (HIV-1)
[19] = molecular target: HIV-1 Env of isolate 93WR029 (pseudovirus) (HIV-1)
[20] = molecular target: HIV-1 Env of isolate APV_13 (HIV-1)
[21] = molecular target: HIV-1 Env of isolate APV_6 (HIV-1)
[22] = molecular target: HIV-1 Env of isolate MG RM-A-006 (pseudovirus) (HIV-1)
[23] = molecular target: HIV-1 Env of isolate MG RM-A-009 (pseudovirus) (HIV-1)
[24] = molecular target: HIV-1 Env of isolate MGRM-AE-001 (pseudovirus) (HIV-1)
[25] = molecular target: HIV-1 Env of isolate MGRM-AE-003 (pseudovirus) (HIV-1)
[26] = molecular target: HIV-1 Env of isolate MGRM-AE-005 (pseudovirus) (HIV-1)
[27] = molecular target: HIV-1 Env of isolate MGRM-AE-006 (pseudovirus) (HIV-1)
[28] = molecular target: HIV-1 Env of isolate MGRM-D-002 (subtype D), on pseudovirus (HIV-1)
[29] = molecular target: HIV-1 Env of isolate MGRM-D-003 (subtype D), on pseudovirus (HIV-1)

Chain of 1443_C16 (PG16) (TCN-116) (antibody) (VH): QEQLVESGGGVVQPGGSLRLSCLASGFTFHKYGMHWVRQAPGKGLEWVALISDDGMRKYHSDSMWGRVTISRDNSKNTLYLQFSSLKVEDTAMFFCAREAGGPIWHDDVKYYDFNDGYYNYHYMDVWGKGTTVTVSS
Chain of 1443_C16 (PG16) (TCN-116) (antibody) (VL): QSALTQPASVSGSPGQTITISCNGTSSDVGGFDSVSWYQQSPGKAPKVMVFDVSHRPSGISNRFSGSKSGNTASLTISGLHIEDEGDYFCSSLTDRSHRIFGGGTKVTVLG

1443_C16 (PG16) (TCN-116) (antibody) showed an IC50, pseudovirus neutralization (TZM-bl) [1] of under 0.01 µg/mL and an IC50, pseudovirus neutralization (TZM-bl) [2] of 2.19 µg/mL.

4877_D15 (PGT-122) (antibody) was tested, and the Neutralization by PGT-122, IC50 [3] was over 10 µg/mL, the Neutralization by PGT-122, IC80 [3] was over 10 µg/mL and the Neutralization by PGT-122, IC90 [3] was over 10 µg/mL. The Neutralization by PGT-122, IC95 [3] was over 10 µg/mL, the Neutralization by PGT-122, IC50 [4] was 0.191 µg/mL and the Neutralization by PGT-122, IC80 [4] was 0.931 µg/mL. For the same substance, the Neutralization by PGT-122, IC90 [4] was 2.1 µg/mL, the Neutralization by PGT-122, IC95 [4] was 3.88 µg/mL and the Neutralization by PGT-122, IC50 [5] was 0.992 µg/mL. For the same substance, the Neutralization by PGT-122, IC80 [5] was 4.14 µg/mL, the Neutralization by PGT-122, IC90 [5] was 8.6 µg/mL and the Neutralization by PGT-122, IC95 [5] was over 10 µg/mL. It also gave a Neutralization by PGT-122, IC50 [6] of over 10 µg/mL, a Neutralization by PGT-122, IC80 [6] of over 10 µg/mL and a Neutralization by PGT-122, IC90 [6] of over 10 µg/mL. It also gave a Neutralization by PGT-122, IC95 [6] of over 10 µg/mL, a Neutralization by PGT-122, IC50 [7] of 0.0727 µg/mL and a Neutralization by PGT-122, IC80 [7] of 0.245 µg/mL. The Neutralization by PGT-122, IC90 [7] was 0.494 µg/mL, the Neutralization by PGT-122, IC95 [7] was 0.926 µg/mL and the Neutralization by PGT-122, IC50 [8] was 0.867 µg/mL. The Neutralization by PGT-122, IC80 [8] was 4.48 µg/mL, the Neutralization by PGT-122, IC90 [8] was over 10 µg/mL and the Neutralization by PGT-122, IC95 [8] was over 10 µg/mL. It also gave a Neutralization by PGT-122, IC50 [9] of 0.0115 µg/mL, a Neutralization by PGT-122, IC80 [9] of 0.035 µg/mL and a Neutralization by PGT-122, IC90 [9] of 0.0674 µg/mL. For the same substance, the Neutralization by PGT-122, IC95 [9] was 0.125 µg/mL.

Work on 5141_B17 (PGT-126) (antibody) yielded an IC50 [10] of 1.35 µg/mL, an IC80 [10] of over 10 µg/mL and an IC90 [10] of over 10 µg/mL. For the same substance, the IC95 [10] was over 10 µg/mL.

In the case of 5147_N06 (PGT-130) (antibody), the neutralization IC50 [11] is reported as 0.0182 µg/mL, the neutralization IC80 [11] is reported as 0.272 µg/mL and the neutralization IC90 [11] is reported as 1.31 µg/mL. For the same substance, the neutralization IC95 [11] was 5.48 µg/mL, the neutralization IC50 [12] was over 10 µg/mL and the neutralization IC80 [12] was over 10 µg/mL. It also gave a neutralization IC90 [12] of over 10 µg/mL, a neutralization IC95 [12] of over 10 µg/mL and a neutralization IC50 [13] of 0.947 µg/mL. The neutralization IC80 [13] was over 10 µg/mL, the neutralization IC90 [13] was over 10 µg/mL and the neutralization IC95 [13] was over 10 µg/mL.

Substance PGV04 (antibody) has an IC50 (µg/mL), single-round pseudovirus neutralization [14] of 0.031 µg/mL and an IC50 (µg/mL), pseudovirus neutralization [15] of 0.0028 µg/mL.

Substance VRC01 (antibody) has an IC50, single-round pseudovirus neutralization [16] of 0.037 µg/mL, an IC50 (µg/mL), pseudovirus neutralization [17] of 0.245 µg/mL and an IC50, pseudovirus neutralization [18] of 0.33 µg/mL. The IC50 (µg/mL), pseudovirus neutralization [19] was 1.57 µg/mL, the IC50 [20] was 0.657 µg/mL and the IC50 [21] was 1.81 µg/mL. The IC50 (µg/mL), pseudovirus neutralization [22] was 0.521 µg/mL, the IC50 (µg/mL), pseudovirus neutralization [23] was 0.118 µg/mL and the IC50 (µg/mL), pseudovirus neutralization [24] was 0.167 µg/mL. For the same substance, the IC50 (µg/mL), pseudovirus neutralization [25] was 0.685 µg/mL, the IC50 (µg/mL), pseudovirus neutralization [26] was 0.029 µg/mL and the IC50 (µg/mL), pseudovirus neutralization [27] was 4.65 µg/mL. For the same substance, the IC50, pseudovirus neutralization [28] was 0.252 µg/mL and the IC50, pseudovirus neutralization [29] was 2.06 µg/mL.
